# In patent US7166764B2, “Noc2 knockout mouse” (JCR Pharmaceuticals Co., Ltd., priority 2004, dated 2007):
# T1: Rab5A (Homo sapiens, UniProt P20339)
# T1 construct: Full-length Rab3A, B, C and D and Rab5 cDNAs were subcloned into pFLAG-CMV-2 (SIGMA); expressed in transfected cells; host or cells: COS-1 cells (lysate)
# T1 sequence (P20339 1-215): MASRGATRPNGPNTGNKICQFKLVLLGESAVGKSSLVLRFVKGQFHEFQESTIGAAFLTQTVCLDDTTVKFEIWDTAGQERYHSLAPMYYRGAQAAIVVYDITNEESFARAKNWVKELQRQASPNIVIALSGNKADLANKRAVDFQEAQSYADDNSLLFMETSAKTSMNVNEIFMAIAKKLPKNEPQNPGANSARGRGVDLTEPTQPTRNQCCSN
# Key:
# pancreatic acinar cells = assay: Amylase secretion from isolated pancreatic acinar cells; format: cell-based, mouse; details: 30 pM CCK or 1 μM carbachol, n=12, means±s.e.m.
# Description: Pancreatic acini were prepared by collagenase digestion method. Amylase secretion experiments were performed according to Ohnishi et al. (28) with slight modifications. Briefly, isolated acini were suspended in an incubation buffer [consisting of 10 mM HEPES (pH 7.4), 127 mM NaCl, 4.7 mM KCl, 0.6 mM MgCl2, 1.3 mM CaCl2, 0.6 mM Na2HPO4, 2.0 mg/ml glucose, Eagle's MEM amino acids supplement, 2 mM L-glutamine, 1% BSA, 0.01% soybean trypsin inhibiter] as previously described (28) and preincubated at 37° C. for 30 minutes. After preincubation, the acini were centrifuged, resuspended in fresh incubation buffer, and incubated at 37° C. in the presence or absence of 30 pM CCK or 1 μM carbachol. Amylase released into the supernatant during incubation was quantified using Amylase B-test WAKO (WAKO PURE CHEMICAL INDUSTRIES). Amylase secretion was normalized as the amount released into the medium relative to the total amylase content in the pancreatic acinar cells (expressed as % amylase release).
# Rab5A = target: T1, Rab5A; assay: In vitro binding assay (cosedimentation, GST-Noc2 on glutathione beads); details: lysates of COS-1 cells transfected with FLAG-tagged Rab5; GDP-βS or GTP-γS
# Description: Wild type Noc2 and mutant Noc2 (Noc2AAA), both full-length, were expressed as GST-fusion proteins and purified according to the manufacturer's instructions (AMERSHAM). Full-length Rab3A, B, C and D and Rab5 cDNAs were subcloned into pFLAG-CMV-2 (SIGMA). For cosedimentation assays, COS-1 cells were transfected with each of the plasmids using LipofectAMINE (INVITROGEN). Following the transfection, the cells were sonicated in a buffer [20 mM HEPES, pH 7.4, 200 mM NaCl, 1 mM dithiothreitol, 5 mM MgCl2, 1 mM ATP and 0.26% (v/v) CHAPS]. In vitro binding assay was performed as previously described (15). Briefly, lysates from COS-1 cells transfected with FLAG-tagged Rab3 isoforms and Rab5 were assessed for binding to GST-Noc2 immobilized on glutathione beads in the presence of GDP-βS or GTP-γS. Rab3 isoforms and Rab5 and GST-Noc2 were detected by immunoblotting with anti-Flag antibody or immunoglobulin G-purified antibody against rat Noc2.
# Rab3 isoforms = assay: as above; details: lysates of COS-1 cells transfected with FLAG-tagged Rab3 isoforms; GDP-βS or GTP-γS
# Description: Pancreatic islets were isolated by collagenase digestion method in a conventional manner (27). The pancreatic islets were cultured for 48 hours in RPMI1640 medium in the presence or absence of PTX (30 ng/ml). Batch incubation was performed as previously described (27). Insulin released into the medium was measured by radioimmunoassay (EIKEN CHEMICAL). Recombinant adenoviruses carrying either LacZ, Noc2 wt (wild-type), or Noc2AAA (mutant) cDNA were generated according to the manufacturer's instructions (STRATAGENE). For preparation of Noc2AAA, Trp-Phe-Tyr (residues 154–156) were replaced with three alanine residues as previously described (24). […] Lysate from COS-1 cells transfected with a Flag-tagged Rab3 isoforms was evaluated for binding to the GST-Noc2 wild-type (Noc2 wt) or the GST-Noc2 mutant (Noc2AAA) in the presence of GTP-γS.
# Wild type Noc2 and mutant Noc2 (Noc2AAA), both full-length, were expressed as GST-fusion proteins and purified according to the manufacturer's instructions (AMERSHAM). […] Briefly, lysates from COS-1 cells transfected with FLAG-tagged Rab3 isoforms and Rab5 were assessed for binding to GST-Noc2 immobilized on glutathione beads in the presence of GDP-βS or GTP-γS. Rab3 isoforms and Rab5 and GST-Noc2 were detected by immunoblotting with anti-Flag antibody or immunoglobulin G-purified antibody against rat Noc2.
# [1] = pancreatic acini of Noc2−/− mice, basal level 4.9±0.5%
# [2] = pancreatic acini of wild-type mice, basal level 5.6±0.9%
molecule,measurement,setting,value
"C[N+](C)(C)CCOC(N)=O [carbachol, reference compound]",% amylase released of total amylase content,pancreatic acinar cells; [1],6.2±0.5%
same,% amylase released of total amylase content,pancreatic acinar cells; [2],15.6±0.8%
"Noc2: full-length wild type Noc2 expressed as GST-fusion protein (protein, left off: a dimerising Fc or GST, full-length wild type Noc2 expressed as GST-fusion protein) MADTIFSSGNDQWVCPNDRQLALRAKLQTGWSVHTYQTEKQRRSQCLSPGELEIILQVIQRAERLDILEQQRIGRLVERLETMQRNVMGNGLSQCLLCGEVLGFLGSSSVFCKDCRKKVCTKCGIEASPGQKRPLWLCKICSEQREVWKRSGAWFYKGLPKYILPLKTPGRADDPHFRPLPVEPTETQPPSAETSRVYTWARGRVVSSDSDSDSDLSSSSLEDRPLPSGVKGTKGDKPRGDSGASMESPRLGPARPPSHLSGSQSSLGSEAGTGATEPQGGTPAQPEPRVPGKRHTWATPRY",binding to Rab5A,Rab5A,not to Rab5A
same,binding to Rab3 isoforms (Rab3A–D),Rab3 isoforms,binds to all of the isoforms of Rab3 in a GTP-dependent manner
"Noc2AAA: mutant Noc2, Trp-Phe-Tyr (residues 154–156) replaced with three alanine residues, GST-fusion protein (protein) MADTIFSSGNDQWVCPNDRQLALRAKLQTGWSVHTYQTEKQRRSQCLSPGELEIILQVIQRAERLDILEQQRIGRLVERLETMQRNVMGNGLSQCLLCGEVLGFLGSSSVFCKDCRKKVCTKCGIEASPGQKRPLWLCKICSEQREVWKRSGAAAAKGLPKYILPLKTPGRADDPHFRPLPVEPTETQPPSAETSRVYTWARGRVVSSDSDSDSDLSSSSLEDRPLPSGVKGTKGDKPRGDSGASMESPRLGPARPPSHLSGSQSSLGSEAGTGATEPQGGTPAQPEPRVPGKRHTWATPRY",binding to Rab3 isoforms (Rab3A–D),Rab3 isoforms,does not bind any isoform of Rab3
"cholecystokinin (peptide, UniProt P06307 21-115, looked up, Cholecystokinin) Cholecystokinin: QPVPPADPAGSGLQRAEEAPRRQLRVSQRTDGESRAHLGALLARYIQQARKAPSGRMSIVKNLQNLDPSHRISDRDYMGWMDFGRRSAEEYEYPS",% amylase released of total amylase content,pancreatic acinar cells; [1],5.8±0.5%
same,% amylase released of total amylase content,pancreatic acinar cells; [2],13.0±0.7%
